# Reference: patent US20240317846A1 (priority 2021, published 2024)
# Several values for one entry are separate records, joined by “and”; a condition that tells them apart may be missing. Equal entries are not always repeated. Entries after “also recorded” stand apart in the source; their conditions may differ. Where two headings read alike, the source gives them in different places. Marks after values point to notes of the source that are not given here.
# Legend:
# COVID-19 [1] = conditions: non-significant trend; cited from earlier work
# COVID-19 [2] = conditions: cited from earlier work
# COVID-19 [3] = conditions: cited from earlier work; for Mean days to discharge: published cohorts; for Median days to discharge: published lopinavir-ritonavir cohort
# COVID-19 [4] = conditions: RECOVERY trial; cited from earlier work
# [5] = system: severe COVID-19 pneumonia
# SARS-CoV-2 infection = type: in vivo, human; conditions: paper examples
# [6] = system: COVID-19 associated chronic ARDS; type: in vivo, human
# Description: Hospitalized subject with confirmed COVID-19 pneumonia and established risk factors for poor outcomes was treated in the ICU for 12 weeks using standard supportive care for chronic acute respiratory distress syndrome (ARDS). […] Patient characteristics, clinical and laboratory outcomes, and adverse events were recorded through duration of hospitalization.
# [7] = Pre-clinical toxicology program; type: in vivo; conditions: data not shown
# [8] = system: severe and critical COVID-19 pneumonia
# [9] = Four completed clinical trials (healthy volunteers, asthma, rheumatoid arthritis, chronic myelomonocytic leukemia); type: in vivo, human; conditions: 113 individuals received lenzilumab
# [10] = target: glycosylated human GM-CSF (Homo sapiens, UniProt P04141); test: Binding affinity for GM-CSF
# [11] = system: severe COVID-19 pneumonia; conditions: for Time to Recovery: placebo 8
# [12] = Lenzilumab group n = 12, control 11
# [13] = one patient, 48 hours post-lenzilumab vs pretreatment
# [14] = repeated measures ANOVA, P<0.001
# [15] = lenzilumab alone or in the combination of the example
# Chain of glycosylated human GM-CSF (P04141 18-144): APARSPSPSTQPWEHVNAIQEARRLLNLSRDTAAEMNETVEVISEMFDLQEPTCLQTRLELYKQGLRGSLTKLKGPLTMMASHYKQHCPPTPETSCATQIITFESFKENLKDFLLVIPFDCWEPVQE
molecule,measurement,setting,value
Mavrilimumab: monoclonal antibody that acts as a GM-CSF alpha-receptor antagonist,Improvement in survival without requirement for supplemental oxygen,COVID-19 [1],48%
Otilimab: monoclonal antibody targeting circulating GM-CSF,Subjects alive and free of respiratory failure at 28 days,"COVID-19 [2]; pre-planned analysis, subjects aged at least 70 years, standard of care 45.9%",65.1%
same,Primary endpoint (proportion alive and free of respiratory failure 28 days),COVID-19 [2]; whole population,not meet its primary endpoint
Tocilizumab: anti-IL6 receptor monoclonal antibody,Range of days to discharge,COVID-19 [3]; 2 patients not discharged,(10-19)* days
same,Mean days to discharge,COVID-19 [3],13.5 days
same,Increased likelihood of survival,COVID-19 [4],14%
same,Increased likelihood of survival without IMV,COVID-19 [4],18%
same,"Survival, Hazard Ratio",COVID-19 [4],1.14
same,"Ventilator-Free Survival, Hazard Ratio",COVID-19 [4],1.18
lopinavir and ritonavir [Lopinavir/Ritonavir],Mean days to discharge,COVID-19 [3],13 days
same,Median days to discharge,COVID-19 [3],13** days
same,Median days to discharge,COVID-19 [3]; listed as Lopinavir-Ritonavir,13 days
"Lenzilumab: first-in-class Humaneered recombinant monoclonal antibody targeting human GM-CSF, derived from mouse antibody LMM102 (antibody, chains of the INN, looked up, V domains shown) VH: QVQLVQSGAEVKKPGASVKVSCKASGYSFTNYYIHWVRQAPGQRLEWMGWINAGNGNTKYSQKFQGRVTITRDTSASTAYMELSSLRSEDTAVYYCVRRQRFPYYFDYWGQGTLVTVSS VL: EIVLTQSPATLSVSPGERATLSCRASQSVGTNVAWYQQKPGQAPRVLIYSTSSRATGITDRFSGSGSGTDFTLTISRLEPEDFAVYYCQQFNKSPLTFGGGTKVEIK",Infusion reactions,[5]; 12 patients,no infusion reactions
same,Treatment-emergent adverse events attributable to lenzilumab,[5]; 12 patients,No treatment-emergent adverse events attributable to lenzilumab
same,Ventilator-free survival vs untreated group,"[5]; Kaplan-Meier, log-rank P=0.06",favored the lenzilumab cohort
same,Days to resolution of fever,[5]; Lenzilumab group n = 12,2 days
same,Incidence of IMV,[5]; Lenzilumab group n = 12,(8%)
same,"Incidence of IMV and/or death, number of patients",[5]; Lenzilumab group n = 12,1
same,"Incidence of IMV, number of patients",[5]; Lenzilumab group n = 12,1
same,"Incidence of clinical improvement, number of patients",[5]; Lenzilumab group n = 12,11
same,Incidence of death,[5]; Lenzilumab group n = 12,(8%)
same,"Incidence of death, number of patients",[5]; Lenzilumab group n = 12,1
same,Patients free of ARDS (SpO2/FiO2 of 315 or higher) by the end of observation,[5]; Lenzilumab group n = 12,92%
same,Days to clinical improvement (median),[5]; [12],5 days
same,Days to discharge from hospital (median),[5]; [12],5 days
same,CRP reduction (mean),"[5]; after 4 days of treatment, control −0.95",135.8
same,IL-6 concentration on day 4 following lenzilumab,[5]; baseline 28.6 pg/mL,8.52 pg/mL
same,Mean absolute neutrophil count on day 4 post lenzilumab,[5]; baseline 5.1,4.8e+09 L⁻¹
same,Mean hemoglobin on day 4 post lenzilumab,[5]; baseline 12.9,11.4 g/dL
same,IL-6 reduction,[5]; baseline vs day 4,20.1
same,ALC increase (mean),"[5]; baseline vs day 4, control 0.03",0.46 × 10*9/L
same,Mean temperature reduction,"[5]; baseline vs day 4, control 0.459",1.075
same,PLT increase (mean),"[5]; baseline vs day 4, control 63.2",52.5
same,Mean CRP after treatment,"[5]; day 4, baseline 172.2 mg/L",36.4 mg/L
same,Cytokines and chemokines involved in the cytokine storm,[5]; [13],significant reduction
same,Mean SpO2/FiO2 over time post-treatment vs untreated,[5]; [14],statistically significant difference
same,Proportion of patients free of ARDS over time vs untreated,[5]; [14],significantly increased
same,2 point improvement in the NIAID eight point ordinal hospital scale,SARS-CoV-2 infection,faster
same,Number of hospital days,SARS-CoV-2 infection,reduction
same,Permanent pulmonary function impairment,SARS-CoV-2 infection,reduction
same,"Time to recovery (6, 7, or 8 on the eight point ordinal hospital scale)",SARS-CoV-2 infection,faster
same,Mortality rates,SARS-CoV-2 infection; [15],reduction
same,Patients requiring ICU admission,SARS-CoV-2 infection; [15],reduction
same,Patients requiring mechanical ventilation,SARS-CoV-2 infection; [15],reduction
same,Oxygen demand one week post lenzilumab,"[6]; person, lenzilumab on week 13 of hospitalization",decreased from high-flow to low-flow nasal cannula
same,Infusion-related or systemic side effects,[6]; single patient,No infusion-related or systemic side effects
same,Lymphopenia post lenzilumab,[6]; single patient,appeared to improve
same,Time from lenzilumab to discharge home,"[6]; single patient, discharged on 4L nasal cannula",Sixteen
same,No Observed Adverse Effect Level (NOAEL),[7],> 100 mg/kg/week
same,Median time to discharge post-lenzilumab,[8]; 11 discharged patients,5 days
same,Infusion reactions,[8]; 12 patients,no infusion reactions
same,Median time to a 2-point clinical improvement,[8]; 12 patients,5 days
same,Patients discharged,[8]; 12 patients,11 of 12
same,Patients discharged on home oxygen,[8]; 12 patients,42%
same,Patients who required invasive mechanical ventilation,[8]; 12 patients,8.3%
same,"Clinical improvement of at least 2 points on the 8-point ordinal clinical endpoints scale, proportion of patients","[8]; 12 patients, 600 mg IV every 8 h x3",92% and 91.7%
same,Mean IL-6 on day 3 following lenzilumab,[8]; baseline 26.8 pg/mL,16.1 pg/mL
same,Mean CRP on day 3 following lenzilumab,[8]; baseline 137.3 mg/L,51.2 mg/L
same,Absolute lymphocyte count on day 3,[8]; baseline 0.89,1.14e+09 L⁻¹
same,Mean absolute neutrophil count on day 3 post lenzilumab,[8]; baseline 5.1,4.8e+09 L⁻¹
same,Mean hemoglobin on day 3 post lenzilumab,[8]; baseline 12.9,11.4 g/dL
same,Mean temperature at day 3,[8]; baseline 37.95,36.97
same,Proportion of patients with SpO2/FiO2<315 at the end of observation,[8]; baseline 67%,8%
same,Mean platelet count on day 3 post lenzilumab,[8]; baseline 217.7,2.618e+11 L⁻¹
same,D-dimer after lenzilumab,[8]; individual patients 2 and 4,1507 ng/mL and 1802 ng/mL
same,"Ferritin after lenzilumab, at discharge",[8]; individual patients 3 and 5,571 µg/L and 1223 µg/L
same,Patients whose SpO2/FiO2 improved to >315 on day 1 post-lenzilumab,[8]; of 8 patients with SpO2/FiO2<315 at baseline,four
same,Patients with a 2-point improvement on 8-point ordinal scale,[8]; of 12 patients,1 patient
same,Patients with ≥3-point improvement on 8-point ordinal scale,[8]; of 12 patients,10 patients
same,"Cytokines involved in cytokine storm (G-CSF, MDC, GM-CSF, IL-1α, IFN-γ, IL-7, FLT-3L, IL-1rα, IL-6, IL-12p70)",[8]; [13],significant reduction
same,LDH after lenzilumab,"[8]; patient 4, hospital day 3",388 U/L
same,Range of days to discharge,[8]; patient 9 pending,(3-14)*** days
same,Patients requiring mechanical invasive ventilation,[8]; patients 1-5,None
same,Time to fever resolution after lenzilumab administration,[8]; patients febrile at baseline,≤ 48 h
same,"Time to clinical two point improvement, faster than comparator antivirals","[8]; vs Remdesivir, Lopinavir-Ritonavir, Tocilizumab cohorts",more than 50%
same,Safety in completed clinical development studies,[9],No treatment emergent serious adverse events (SAEs) or Suspected Unexpected Serious Adverse Reactions (SUSARSs); also recorded: very well tolerated
same,"Survival, Kaplan-Meier event estimate (mortality)","COVID-19 pneumonia; mITT, lenzilumab arm, day 28, placebo 13.9",9.6%
same,"Ventilator-Free Survival, Kaplan-Meier event estimate (IMV and/or death)","COVID-19 pneumonia; mITT, lenzilumab arm, day 28, placebo 22.1",15.6%
same,SAEs attributed to lenzilumab,COVID-19 pneumonia; phase 3 trial,none were attributed to lenzilumab
same,Safety and tolerability,COVID-19 pneumonia; phase 3 trial,safe and well-tolerated
same,Increased likelihood of survival without IMV,"COVID-19 pneumonia; relative to placebo, mITT",54%
same,Increased likelihood of survival,"COVID-19 pneumonia; relative to placebo, not statistically significant",39% (NS)
same,Binding affinity,[10],picomolar range
same,Kd,[10],25 pM
same,Off-rate,[10],slow off-rate
same,Acute kidney injury,"[11]; Grade ≥3, Lenzilumab N = 255",5 (2.0) n (%)
same,Acute respiratory distress syndrome,"[11]; Grade ≥3, Lenzilumab N = 255",4 (1.6) n (%)
same,Acute respiratory failure,"[11]; Grade ≥3, Lenzilumab N = 255",18 (7.1) n (%)
same,Cardiac arrest,"[11]; Grade ≥3, Lenzilumab N = 255",8 (3.1) n (%)
same,Cardiac disorders,"[11]; Grade ≥3, Lenzilumab N = 255",15 (5.9) n (%)
same,Cardio-respiratory arrest,"[11]; Grade ≥3, Lenzilumab N = 255",3 (1.2) n (%)
same,General disorders and administration site conditions,"[11]; Grade ≥3, Lenzilumab N = 255",4 (1.6) n (%)
same,Hypotension,"[11]; Grade ≥3, Lenzilumab N = 255",2 (0.8) n (%)
same,Hypoxia,"[11]; Grade ≥3, Lenzilumab N = 255",15 (5.9) n (%)
same,Infections and infestations,"[11]; Grade ≥3, Lenzilumab N = 255",10 (3.9) n (%)
same,Multiple organ dysfunction syndrome,"[11]; Grade ≥3, Lenzilumab N = 255",3 (1.2) n (%)
same,Pneumonia bacterial,"[11]; Grade ≥3, Lenzilumab N = 255",0 (0.0) n (%)
same,Pulmonary embolism,"[11]; Grade ≥3, Lenzilumab N = 255",5 (2.0) n (%)
same,Renal and urinary disorders,"[11]; Grade ≥3, Lenzilumab N = 255",5 (2.0) n (%)
same,Respiratory failure,"[11]; Grade ≥3, Lenzilumab N = 255",24 (9.4) n (%)
same,"Respiratory, thoracic and mediastinal disorders","[11]; Grade ≥3, Lenzilumab N = 255",64 (25.1) n (%)
same,Sepsis,"[11]; Grade ≥3, Lenzilumab N = 255",2 (0.8) n (%)
same,Septic shock,"[11]; Grade ≥3, Lenzilumab N = 255",5 (2.0) n (%)
same,Shock,"[11]; Grade ≥3, Lenzilumab N = 255",3 (1.2) n (%)
same,Vascular disorders,"[11]; Grade ≥3, Lenzilumab N = 255",10 (3.9) n (%)
same,Kaplan-Meier Estimate of Failure to Achieve SWOV,[11]; ITT (n = 520),18.9%
same,Kaplan-Meier Estimate of Failure to Achieve SWOV,"[11]; ITT subgroup n = 338, placebo 27.8%",17.8%
same,Kaplan-Meier Estimate of Failure to Achieve SWOV,"[11]; ITT, CRP <150 mg/L and age <85 (n = 359), placebo 22.6%",11.5%
same,Safety and tolerability,[11]; LIVE-AIR,safe and well tolerated
same,Any AE ≥ Grade 3,[11]; Lenzilumab N = 255,68 (26.7) n (%)
same,Serum CRP levels following treatment,"[11]; from two days after administration for 28 days, only in baseline CRP<150 mg/L",decreased CRP levels
same,Attributable serious adverse events,"[11]; incl. hematologic, liver enzyme abnormalities, pulmonary alveolar proteinosis, infection",no attributable serious adverse events
same,Time to Recovery,[11]; mITT (n = 236),8 median days
same,Mortality,"[11]; mITT (n = 236), placebo 13.9",9.6%
same,"Incidence IMV, ECMO or death","[11]; mITT (n = 236), placebo 21.4",15.4%
same,Kaplan-Meier Estimate of Failure to Achieve SWOV,"[11]; mITT (n = 479), Day 28, placebo 22.1%",15.6%
same,Kaplan-Meier Estimate of Failure to Achieve SWOV,"[11]; mITT subgroup n = 331 (remdesivir plus steroids per text), placebo 26.9%",16.3%
same,Kaplan-Meier Estimate of Failure to Achieve SWOV,"[11]; mITT, >2 days prior (n = 165), placebo 14.4%",13.7%
same,Kaplan-Meier Estimate of Failure to Achieve SWOV,"[11]; mITT, CRP <150 mg/L and age <85 (n = 336), placebo 21.1%",8.5%
same,Time to Recovery,"[11]; mITT, CRP <150 mg/L, Age <85 (n = 157)",7 median days
same,Mortality,"[11]; mITT, CRP <150 mg/L, Age <85 (n = 157), placebo 13.8",6.6%
same,"Incidence IMV, ECMO or death","[11]; mITT, CRP <150 mg/L, Age <85 (n = 157), placebo 19.5",7.2%
same,Improvement in Time to Recovery,"[11]; mITT, CRP<150 mg/L and age<85",36%
same,Kaplan-Meier Estimate of Failure to Achieve SWOV,"[11]; mITT, hospitalized 2 days prior or less (n = 297), placebo 27.6%",16.5%
same,Infusion-related reactions,[11]; safety population,no infusion-related reactions
same,"Serious adverse events, subjects","[11]; safety population, placebo 29.6%",24.7%
same,"Adverse events ≥Grade 3, subjects","[11]; safety population, placebo 32.7%",26.7%
same,Improvement in SWOV,[11]; subjects hospitalized <2 days,88%
